These results are taken from article PMC6325770.

The target of the experiment is enhanced green fluorescent protein-labelled G-protein-coupled receptor kinase-interacting protein 1 (GIT1) (UniProt Q9Y2X7). Briefly: MST; enhanced green fluorescent protein-labelled GIT1 in human embryonic kidney 293 cell lysate at constant 20 nmol/L, serial dilution of purified CLIC4; Monolith NT.115.
Chain of UniProt Q9Y2X7 (Q9Y2X7 whole entry): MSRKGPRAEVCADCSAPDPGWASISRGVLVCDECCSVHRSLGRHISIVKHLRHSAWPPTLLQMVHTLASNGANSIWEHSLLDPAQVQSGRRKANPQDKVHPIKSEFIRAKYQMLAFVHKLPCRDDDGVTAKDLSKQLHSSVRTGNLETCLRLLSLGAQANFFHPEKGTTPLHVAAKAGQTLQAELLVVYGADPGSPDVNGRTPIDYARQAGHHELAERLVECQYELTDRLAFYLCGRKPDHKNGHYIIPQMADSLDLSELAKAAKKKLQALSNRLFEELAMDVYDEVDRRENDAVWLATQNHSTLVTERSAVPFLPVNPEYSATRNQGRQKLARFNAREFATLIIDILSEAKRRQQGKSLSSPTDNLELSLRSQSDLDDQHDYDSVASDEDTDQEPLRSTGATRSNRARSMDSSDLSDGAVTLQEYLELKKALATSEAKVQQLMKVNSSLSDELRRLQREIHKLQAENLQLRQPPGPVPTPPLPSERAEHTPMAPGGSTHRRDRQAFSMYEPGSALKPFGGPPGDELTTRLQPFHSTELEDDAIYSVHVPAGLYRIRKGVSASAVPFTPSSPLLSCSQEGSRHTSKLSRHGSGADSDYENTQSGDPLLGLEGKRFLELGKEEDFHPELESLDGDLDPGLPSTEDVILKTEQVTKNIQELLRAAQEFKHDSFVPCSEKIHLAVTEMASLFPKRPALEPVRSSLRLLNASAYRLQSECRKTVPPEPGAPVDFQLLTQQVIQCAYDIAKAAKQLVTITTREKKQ

Usually Kd stands for the equilibrium constant for the complex coming apart. With “purified CLIC4 (ab104744; Abcam) (from UniProt Q9Y696 1-253) (natural protein)”, the Kd stood at 1800 nM.
